Each block holds one molecule with its values, some of them ahead of it.
Experiments:
[1] = test system: T1, HA-GAF-FL (Drosophila melanogaster), Q08605-2; assay: EMSA; details: ~15 nM protein, 3 nM NCP; 12.5 mM HEPES-KOH pH 7.6, 0.05 mM EDTA, 6.25 mM MgCl2, 5% glycerol, 50 mM NaCl, 50 ug/ml BSA, 0.05% NP-40; EMSA at room temperature; smFRET adds dextrose …
T1 sequence: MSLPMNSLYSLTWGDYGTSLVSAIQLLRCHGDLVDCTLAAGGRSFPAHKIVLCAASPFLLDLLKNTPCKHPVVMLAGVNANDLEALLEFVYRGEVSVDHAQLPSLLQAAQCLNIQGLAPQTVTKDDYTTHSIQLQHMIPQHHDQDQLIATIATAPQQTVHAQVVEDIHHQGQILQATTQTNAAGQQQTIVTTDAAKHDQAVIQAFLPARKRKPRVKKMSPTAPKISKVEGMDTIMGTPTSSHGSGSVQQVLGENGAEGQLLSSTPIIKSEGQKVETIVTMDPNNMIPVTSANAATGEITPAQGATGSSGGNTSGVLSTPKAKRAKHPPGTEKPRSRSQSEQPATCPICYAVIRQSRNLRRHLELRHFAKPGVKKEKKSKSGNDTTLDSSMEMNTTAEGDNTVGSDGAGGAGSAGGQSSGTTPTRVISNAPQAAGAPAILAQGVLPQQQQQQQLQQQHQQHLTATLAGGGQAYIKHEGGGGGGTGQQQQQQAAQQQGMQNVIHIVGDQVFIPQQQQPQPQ

[2] = test system: T2, Cy3-GAF-DBD / GAF-DBD (Drosophila melanogaster), Q08605-2; assay: EMSA; details: 3 nM DNA; 12.5 mM HEPES-KOH pH 7.6, 0.05 mM EDTA, 6.25 mM MgCl2, 5% glycerol, 50 mM NaCl, 50 ug/ml BSA, 0.05% NP-40; EMSA at room temperature; smFRET adds dextrose …
T2 sequence: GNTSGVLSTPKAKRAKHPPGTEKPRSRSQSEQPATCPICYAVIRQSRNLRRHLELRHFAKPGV

[3] = test system: T2, Cy3-GAF-DBD / GAF-DBD (Drosophila melanogaster), Q08605-2; assay: smFRET; details: from koff/kon; dwell 3.1 s; 6.25 mM Mg2+; 12.5 mM HEPES-KOH pH 7.6, 0.05 mM EDTA, 6.25 mM MgCl2, 5% glycerol, 50 mM NaCl, 50 ug/ml BSA, 0.05% NP-40; EMSA at room temperature; smFRET adds dextrose …
[4] = molecular target: SNAP-tagged full-length GAGA factor (MBP–SNAP–GAF–6×His) (Drosophila melanogaster); assay: mass photometry; Refeyn TwoMP; proteins free in solution; optical tweezers imaging buffer without NP-40; 10-min incubation before measuring; at concentrations similar to those of the optical tweezers experiments (80 nM GAF-FL, 25 nM GAF-ΔPOZ)
HA-GAF-FL = molecular target: T3, HA-GAF-FL (Drosophila melanogaster, UniProt Q08605-2 1-519); assay: EMSA; 3 nM DNA; 12.5 mM HEPES-KOH pH 7.6, 0.05 mM EDTA, 6.25 mM MgCl2, 5% glycerol, 50 mM NaCl, 50 ug/ml BSA, 0.05% NP-40; EMSA at room temperature; smFRET adds dextrose, Trolox, glucose oxidase, catalase; details: protein: recombinant; tags: N-terminal HA; chain copies: 6; label: Cy5 at end
T3 sequence: T1 sequence

Molecule: GTGTCATTTGTTTGGCAGAAAGAAAACTCGAGAAATTTCTCTGGCCGTTATTCTCTATTCGTTTTGTGACTCTCCCTCTCTGTACTATTGCTCTCTCACTCTGTCGCACAGTAAACGGCACACTGTTCTCGTTGCTTCGAGAGAGCGCGCCTCGAA (double strand) [hsp70 NCP (3-N-6 nucleosome)]
- binding signal (fold less bound than free DNA) [1]: 2

Molecule: GTGTCATTTGTTTGGCAGAAAGAAAACTCGAGAAATTTCTCTGGCCGTTATTCTCTATTCGTTTTGTGACTCTCCCTCTCTGTACTATTGCTCTCTCACTCTGTCGCACAGTAAACGGCACACTGTTCTCGTTGCTTCGAGAGAGCGCGCCTCGAA (double strand) [hsp70 NCP DNA (free, 3-N-6)]
- K half [2]: 12 nM

Molecule: GTTTTGTGAGTACGCGCTGTTGTACTATTGTTAACCCACAAGGTCGCACAGTAAACGGCACACTGTACGTGTTGCTTCGAGAGAGCGCGC (double strand) [Cy5-cognate DNA 90 bp]
- Kd [3]: 11.5 nM

- stoichiometry N [4]: 8
Molecule: SNAP-tagged full-length GAGA factor (MBP–SNAP–GAF–6×His) (natural protein)

B1: hsp70 NCP DNA (free, 3-N-6) (dsDNA)
DNA 1: GTGTCATTTGTTTGGCAGAAAGAAAACTCGAGAAATTTCTCTGGCCGTTATTCTCTATTCGTTTTGTGACTCTCCCTCTCTGTACTATTGCTCTCTCACTCTGTCGCACAGTAAACGGCACACTGTTCTCGTTGCTTCGAGAGAGCGCGCCTCGAA
DNA 2: TTCGAGGCGCGCTCTCTCGAAGCAACGAGAACAGTGTGCCGTTTACTGTGCGACAGAGTGAGAGAGCAATAGTACAGAGAGGGAGAGTCACAAAACGAATAGAGAATAACGGCCAGAGAAATTTCTCGAGTTTTCTTTCTGCCAAACAAATGACAC
- binding result (HA-GAF-FL): binds

Reference: paper PMC12618267, “GAGA zinc finger transcription factor searches chromatin by 1D–3D facilitated diffusion”
